Test results reported in patent EP1988097A1 (dated 2008).

Experiments:
[1] = molecular target: T1, P501S peptide on HLA-B*51:01:01 (human); experiment: stated without data
T1 peptide: SACDVSVRV

[2] = molecular target: T2, P501S peptide on HLA-B*51:01:01 (human); experiment: cytokine release
T2 peptide: ASACDVSVRV

binding result [1]: recognises
binding result [2]: recognises
B1: TCR of the P501S-specific T cell clone 4E5 (TCR, V domains shown)
Valpha: AQKITQTQPGMFVQEKEAVTLDCTYDTSDQSYGLFWYKQPSSGEMIFLIYQGSYDEQNATEGRYSLNFQKARKSANLVISASQLGDSAMYFCAMREGAGGGNKLTFGTGTQLKVEL
Vbeta: ETGVTQTPRHLVMGMTNKKSLKCEQHLGHNAMYWYKQSAKKPLELMFVYSLEERVENNSVPSRFSPECPNSSHLFLHLHTLQPEDSALYLCASSQDRTSSSYEQYFGPGTRLTVT
